Data from patent publication US10967064B2, “Preparation method for a DNA origami based carrier system” (YEDITEPE UNIVERSITESI, priority 2016, dated 2021).

Columns and labels:
[1] = system: MDA-MB-231 cell line; assay: Cytotoxicity of the DNA origami carrier (cell viability); format: cell-based; conditions: MDA-MB-231, concentration range 50-400 nM
Protocol: The cytotoxicity assessments of the DNA origami structure were carried out on MDA-MB-231 cell line at a concentration range of 50-400 nM. According to the cell viability results of the experiment, the DNA-tiles are non-toxic to the cells.

[2] = Dynamic light scattering analysis of hydrodynamic size; format: physicochemical; conditions: DLS, dispersed in water
Protocol: In step 1), 2 μL of each complementary oligonucleotide from a 100 μM stock is added into the hybridization buffer TAE/Mg^2+ to have a final volume of 200 μL. The newly prepared DNA origami carrier is characterized using AFM, agarose gel electrophoresis and dynamic light scattering analysis.
For DLS measurements, DNA tiles are dispersed in water. In water, DNA tiles are solvated by water molecules. This hydration layer causes grater diameter than theoretical size of the structure. Hydrodynamic size of DNA tiles was determined as approximately 50 nm, which is in good agreement with AFM results.

[3] = Atomic force microscopy (AFM) size of DNA tile on mica; format: physicochemical; conditions: dried on mica, non-contact mode; theoretical value 40 nm
Text: The DNA tile samples taken from the hybridization media were dropped on mica surface for deposition and subsequently washed with deionized water. When the dropped DNA samples on mica were dried, images acquired at non-contact mode. Considering the distance between the base pairs in the DNA as 0.34 nm and the number of the base pairs in the DNA tile structure from one end to another, […], the theoretical length of an assembled DNA tile can be estimated as 40 nm. A representative AFM image obtained from the DNA tile containing dried droplet area is shown on FIG. 2. […] The marked structure is measured as 64 nm, which is larger than the theoretical value of 40 nm. […] Considering the fact that the formation of DNA based structures is not always 100 percent efficient, this deviation can be acceptable.

B1: DNA tiles: tile shaped DNA origami structure prepared by hybridizing nine complementary oligonucleotides (SEQ ID NOS: 1-9) (nucleic acid)
DNA 1: AGGCACCATCGTAGGAAAATCTGCGTCAGCTCTCCGTACACCAGTGCTTCCATGCGAAGTAAAACGTTCCGATCACCAACGGAGTAAAACGATCTAACTGATAACTAGCACCTCTGCTCACGTGAGGAGTAAAACTTGCC
DNA 2: ATACCGGAGGCTTCCTGTACGGAGAGCTGACGCAGACCTACGATGGACACGCCG
DNA 3: ATGCAACCTGCCTGGCAAGACTCCTCACGTGAGCAGAGGACTACTCATCCGTTA
DNA 4: TTTCCGACTGAGCCCTGCTAGTTATCAGTTAGATCGACTCCGTTGGACGAACAG
DNA 5: ATAGCGCCTGATCGGAACGACTTCGCATGGAAGCACTGGACCGTTCTACCGATT
DNA 6: CTCGCAATCGGTAGAACGGTGGAAGCCTCCGGTATGCATG
DNA 7: AAAAAAAAAACGGCGTGTGGTTGCATAAAAAAAAAA
DNA 8: CGCTATAACGGATGAGTAGTGGGCTCAGTCGGAAAGAGCA
DNA 9: AAAAAAAAAACTGTTCGTGGCGCTATAAAAAAAAAA
modifications: Oligonucleotide 1; Oligonucleotide 2; Oligonucleotide 3; Oligonucleotide 4; Oligonucleotide 5; Oligonucleotide 6; Oligonucleotide 7; Oligonucleotide 8; Oligonucleotide 9
Cytotoxicity (cell viability) [1]: non-toxic | Hydrodynamic size [2]: approximately 50 nm | Size of marked structure in AFM image [3]: 64 nm
